For the experiment, the system named is xylose isomerase activity. The experiment can be described thus: Heterologous xylose isomerase expression in engineered yeast (active yes/no). The settings on record: xylose isomerase of the donor organism expressed in engineered yeast (S. cerevisiae).

Turning to “Thermus thermophilus: xylose isomerase (Type 1) of this donor organism expressed in S. cerevisiae”, the “Active? (yes/no)” value is reported as “Yes”. Next, “Streptomyces diastaticus subsp diastaticus: xylose isomerase of this donor organism expressed in S. cerevisiae”: “No”; “Streptomyces rubiginosus: xylose isomerase of this donor organism expressed in S. cerevisiae”: “No”; “Actinoplanes missouriensis: xylose isomerase of this donor organism expressed in S. cerevisiae”: “No”. As for “Bacteroides thetaiotaomicron: xylose isomerase of this donor organism expressed in S. cerevisiae”, the “Active? (yes/no)” value is given as “Yes”.

B1: Escherichia coli: xylose isomerase of this donor organism expressed in S. cerevisiae (protein, UniProt P00944 1-440, looked up)
Xylose isomerase: MQAYFDQLDRVRYEGSKSSNPLAFRHYNPDELVLGKRMEEHLRFAACYWHTFCWNGADMFGVGAFNRPWQQPGEALALAKRKADVAFEFFHKLHVPFYCFHDVDVSPEGASLKEYINNFAQMVDVLAGKQEESGVKLLWGTANCFTNPRYGAGAATNPDPEVFSWAATQVVTAMEATHKLGGENYVLWGGREGYETLLNTDLRQEREQLGRFMQMVVEHKHKIGFQGTLLIEPKPQEPTKHQYDYDAATVYGFLKQFGLEKEIKLNIEANHATLAGHSFHHEIATAIALGLFGSVDANRGDAQLGWDTDQFPNSVEENALVMYEILKAGGFTTGGLNFDAKVRRQSTDKYDLFYGHIGAMDTMALALKIAARMIEDGELDKRIAQRYSGWNSELGQQILKGQMSLADLAKYAQEHHLSPVHQSGRQEQLENLVNHYLFDK
Regarding B1, the “Active? (yes/no)” value is reported as “No”.

B2: Pseudomonas syringae: xylose isomerase of this donor organism expressed in S. cerevisiae (protein)
chain: MHPRVLEVTERLIARSRDTRQRYLQLIRGAASDGPMRGKLQCANFAHGVAACGPEDKQSLRLMNAANVAIVSSYNEMLSAHQPYEHFPAQIKQALRDIGSVGQFAGGVPAMCDGVTQGEPGMELAIASREVIAMSTAIALSHNMFDAAMMLGICDKIVPGLMMGALRFGHLPTIFVPGGPMVSGISNKEKADVRQRYAEGKASREELLDSEMKSYHGPGTCTFYGTANTNQLVMEVMGMHLPGASFVNPYTPLRDALTAEAARQVTRLTMQSGSFMPIGEIVDERSLVNSIVALHATGGSTNHTLHMPAIAQAAGIQLTWQDMADLSEVVP
As for B2, the “Active? (yes/no)” value is on record as “No”.

B3: Burkholderia xenovorans: xylose isomerase of this donor organism expressed in S. cerevisiae (protein, UniProt Q13RB8 1-440, looked up)
Xylose isomerase: MSYFEHIPEIRYEGPQSDNPLAYRHYDKSKKVLGKTLEEHLRIAVCYWHTFVWPGVDIFGQGTFRRPWQQAGDAMERARQKADSAFEFFSKLGTPYYTFHDTDVSPEGSSLKEYSENFLRITDYLARKQEDTGIKLLWGTANLFSHPRYAAGAATSPDPEVFAFAATQVRHALDATQRLGGDNYVLWGGREGYDTLLNTDLMRERDQLARFLHMVVDHAHKIGFKGSLLIEPKPQEPTKHQYDYDVATVHGFLLQHGLEKEIRVNIEANHATLAGHSFHHEIATAYALGIFGSVDANRGDPQNGWDTDQFPNSVEELTLAFYEILKHGGFTTGGMNFDSKVRRQSVDPEDLFYGHIGAIDNLALAVERAAVLIENDRLDQFKRQRYAGWDADFGRKILSGDYSLSTLATDALARGLNPQHASGHQELMENIVNQAIYSGR
In the case of B3, the “Active? (yes/no)” value was “No”.

B4: Psudomonas savastanoi: xylose isomerase of this donor organism expressed in S. cerevisiae (protein, UniProt Q48J73 1-438, looked up)
Xylose isomerase: MPYFPAVDKVRYEGPDSDSPLAFRHYDADKLILGKPMREHLRMAACYWHTFVWPGADMFGVGTFKRPWQGSGDPLELAIGKAETAFEFFSKLGIDYYSFHDTDVAPEGSSLKEYRNNFAQMIDQLERHQEQTGIKLLWGTANCFSNPRFAAGAASNPDPEVFAYAATQVFSAMNATQRLKGANYVLWGGREGYETLLNTDLRQEREQLGRFMRMVVEHKHKIGFKGDLLIEPKPQEPTKHQYDYDSATVFGFLQQYGLEKEIKVNIEANHATLAGHSFHHEIATAVSLGIFGSIDANRGDPQNGWDTDQFPNSVEEMTLATYEILKAGGFTNGGYNFDSKVRRQSLDEVDLFHGHVAAMDVLALALERAAAMVQNDKLQQFKDQRYAGWQQPFGKSLLAGEFSLESLAKHAFDKDLNPQAVSGRQELLEGVVNRFIYF
modifications: expressed in S. cerevisiae
For the molecule B4, the “Active? (yes/no)” value is listed as “No”.

B5: Staphylococcus xylosus: xylose isomerase of this donor organism expressed in S. cerevisiae (protein, UniProt P27157 1-439, looked up)
Xylose isomerase: MSYFDINKVNYEGPKSNNAFSFKYYNPEEKLGNHSMSELLRFSVAYWHTFTADLSDPFGVGVAERDWDSLDEMEKAKARVEAIFEFMEKTRIDYFCFHDVDISPEGASLKESNENLDIIVELIKEKMDQTGKKLLWNTTNNFTHERFVHGAATSSNAEVFAYAAAKVKKSLEIAKKLGSENFVFWGGREGYESLLNTNMKLELDNLATFFKMAKSYADEIGYTGQFLIEPKPKEPTTHQYDTDVATAHAFLQKYDLDKDFKFNIEANHATLAGHTFQHELRYARDNNMLGSVDANQGHPLLGWDTDESTDVYDTTLAMYEILKNGGLAPGGLNFDAKPRRTSFKQEDLILTHIAGMDTFALGLRVAYKMIEDNFFENIMDEKYKSFNEGIGKKIVEGETSLKELEDYAFNINTINNTSDHLEVIKSQINQYILNINNKD
Turning to B5, the “Active? (yes/no)” value is reported as “No”.

B6: Clostridium thermosulfurogenes: xylose isomerase of this donor organism expressed in S. cerevisiae (protein, UniProt P19148 1-439, looked up)
Xylose isomerase: MNKYFENVSKIKYEGPKSNNPYSFKFYNPEEVIDGKTMEEHLRFSIAYWHTFTADGTDQFGKATMQRPWNHYTDPMDIAKARVEAAFEFFDKINAPYFCFHDRDIAPEGDTLRETNKNLDTIVAMIKDYLKTSKTKVLWGTANLFSNPRFVHGASTSCNADVFAYSAAQVKKALEITKELGGENYVFWGGREGYETLLNTDMEFELDNFARFLHMAVDYAKEIGFEGQFLIEPKPKEPTKHQYDFDVANVLAFLRKYDLDKYFKVNIEANHATLAFHDFQHELRYARINGVLGSIDANTGDMLLGWDTDQFPTDIRMTTLAMYEVIKMGGFDKGGLNFDAKVRRASFEPEDLFLGHIAGMDAFAKGFKVAYKLVKDRVFDKFIEERYASYKDGIGADIVSGKADFRSLEKYALERSQIVNKSGRQELLESILNQYLFAE
Regarding B6, the “Active? (yes/no)” value is recorded as “No”.

B7: Arabidopsis thaliana: xylose isomerase of this donor organism expressed in S. cerevisiae (protein, UniProt Q9FKK7 1-477, looked up)
Xylose isomerase: MKKVEFFMLLLCFIAASSLVSADPPTCPADLGGKCSDSDDWQGDFFPEIPKIKYEGPSSKNPLAYRWYNAEEEILGKKMKDWFRFSVAFWHTFRGTGGDPFGAATKYWPWEDGTNSVSMAKRRMRANFEFLKKLGVDWWCFHDRDIAPDGTTLEESNKNLDEVIELAKELQKGSKIKPLWGTAQLFLHPRYMHGGATSSEVGVYAYAAAQVKKAMEVTHYLGGENYVFWGGREGYQTLLNTDMGRELDHLARFFEAAVAYKKKIGFKGTLLIEPKPQEPTKHQYDWDAATAANFLRKYGLIDEFKLNIECNHATLSGHTCHHELETARINGLLGNIDANTGDAQTGWDTDQFLTDVGEATMVMMSVIKNGGIAPGGFNFDAKLRRESTDVEDLFIAHISGMDTMARGLRNAVKILEEGSLSELVRKRYATWDSELGKQIEEGKADFEYLEKKAKEFGEPKVSSAKQELAEMIFQSAM
Turning to B7, the “Active? (yes/no)” value is reported as “No”.

B8: Bacillus subtilis: xylose isomerase of this donor organism expressed in S. cerevisiae (protein, UniProt P0CI80 1-445, looked up)
Xylose isomerase: MAQSHSSSINYFGSANKVVYEGKDSTNPLAFKYYNPQEVIGGKTLKEHLRFSIAYWHTFTADGTDVFGAATMQRPWDHYKGMDLAKMRVEAAFEMFEKLDAPFFAFHDRDIAPEGSTLKETNQNLDMIMGMIKDYMRNSGVKLLWNTANMFTNPRFVHGAATSCNADVFAYAAAQVKKGLETAKELGAENYVFWGGREGYETLLNTDLKFELDNLARFMHMAVDYAKEIGYTGQFLIEPKPKEPTTHQYDTDAATTIAFLKQYGLDNHFKLNLEANHATLAGHTFEHELRMARVHGLLGSVDANQGHPLLGWDTDEFPTDLYSTTLAMYEILQNGGLGSGGLNFDAKVRRSSFEPDDLIYAHIAGMDAFARGLKVAHKLIEDRVFEDVIQHRYRSFTEGIGLEIIEGRANFHTLEQYALNHKSIKNESGRQEKLKAILNQYILEV
modifications: expressed in S. cerevisiae
For the molecule B8, the “Active? (yes/no)” value is given as “No”.

B9: Bacillus licheniformis: xylose isomerase of this donor organism expressed in S. cerevisiae (protein, UniProt P77832 1-448, looked up)
Xylose isomerase: MFFRNIGMIEYEGADSENPYAFKYYNPDEFVGGKTMKEHLRFAVAYWHTFDADGKDPFGDGTMFRAWNRLTHPLDKAKARAEAAFEFFEKLGVPYFCFHDVDIVDEGATLRETFTYLDQMSSFLKEMMETSHVQLLWNTANMFTHPRYVHGAATSCNADVYAYAAAKVKKGLDIAKELGAENYVFWGGREGYETLLNTDMKLELENLSSFYRMAVEYAREIGFDGQFLIEPKPKEPTKHQYDFDAATTIAFLETYGLKDHFKLNLEANHATLAGHTFEHELRVAALHDMLGSIDANQGDLLLGWDTDEFPTDLYSAVLAMYEILKAGGFKTGGINFDAKVRRPSFADEDLFHAHIAGMDTYAVGLKVASRLLEDKALDQVIEERYESYTKGIGLEIKEGRTDLKKLAAYALENDHIENQSGRQERLKATVNRYLLNALREAPAGKETH
Take B9: the “Active? (yes/no)” value is “No”.

The values above are taken from US20110165660A1, “ENGINEERED MICROORGANISMS WITH ENHANCED FERMENTATION ACTIVITY” (VERDEZYNE, INC., priority 2009, published 2011).
